Experiment: yeast display, Sf9 membrane polyspecificity reagent, FACS + sequencing; frameworks hold sequencing errors
How it was run: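 Sorting gates, low and high (top ~1%), were placed on anti-HA fluorescence to track expression and on streptavidin fluorescence to track reagent binding. A clone's polyreactivity label is taken from the gate it came out of. The reagent was 10% biotinylated, detergent-solubilized Sf9 membrane, applied for 1 hour at 4 °C to galactose-induced yeast display cells.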

| Sequence | polyreactivity (PSR sort gate) |
| --- | --- |
| QFQLVESGGGLLQAGGSLRLSCAASGLTFNQKAMGWYTQAPGKDRELVAAISRRGGSTYYADSVKGRFTFSRENAKNTVYLQLNSLKPEDTAVYYCNTRGKSGLWWYYYWGQGTQVTVSS | high polyreactivity |
| QFQLVESGGGLVHAGGSLRLSCAATGSTLPGYAMGWYRQAPGKERELVAAITSRGGTTYYADSVKGRFTISCDNAKKTVYLQMNSLKPEDTAVYYCAAYTSYASDYWGQGTQVTVSS | high polyreactivity |
| QFQLVESGGGLVKAGGSLRLSSAASGGTFGYYTMGWYRQAPGKERELVAAISSGGGTDYADSVKGRFTISRDNAKNTVYFQMTSLKPEDTALYYCATVSDYPWRYDYWVQGTQVTVSS | low polyreactivity |
| QFQLVESGGGLVQAGASLRLSCAASGSIFDLNALGWYRQAPGKDRELVAAITRDSGITYYADSVKGRFKISRDNAKNTVYLQMNSLKPEDTAVYYCAADADSSSGDSWGQGTQVTVSS | low polyreactivity |
| QFQLVESGGGLVQAGGILRLSCADSGSTFRWYAMGWYRKAPGKERELVASITYSGASTYYADSVKGRFTISRDNAKNTVYLQMISLKPEDTAVYYCNAVFWFSYVSEYDYWGQGTQVTVSS | high polyreactivity |
| QFQLVESGGGLVQAGGRLRLSCAASGSIFYRNAMGWYRQAPGKERELVAAISASGGSTYYADSVKGRFTISRDNEKNTVYLQMIILKPEDTAVYYCDVEYRKSRSYAPMGYWGQGTQVTVSS | high polyreactivity |
| QFQLVESGGGLVQAGGSLRISCAASGSTFVLNAMGWYRQAPGKDREWVAAISQSDYSTYYSDSVKGRFTISRDNAKNTVYLQMNSLKPEDTAVYYSAREYAHLSFLSTSSDYWGQGTQVTVSS | low polyreactivity |
| QFQLVESGGGLVQAGGSLRLRCAATGSNFYVYALGWYRQAPGKETELVAAIRRTGSSTYYADSVKGRFTMSRDNAKNTDYLQMNSLKPEDTAVYYCAARYWRARAGSYDYWGQGTQVTVSS | high polyreactivity |
| QFQLVESGGGLVQAGGSLRLSCAASGFIFGGNVMGWYRQAPGKERELVAAITSSATTYYADSVKGRFTISRDNAKNTVYLQMNSLKREDTAVYYCAADTWTIVDYGYWGQGTQVTVSS | low polyreactivity |
| QFQLVESGGGLVQAGGSLRLSCAASGFIFGYNAMGWYRQAPGKERELVAPITYNGASTNYADSVKGRFTISRDNAKNTVYLQMNSLKPEDTAVYYCAADYGPYDPEDDWGQGTQVTVSS | low polyreactivity |
| QFQLVESGGGLVQAGGSLRLSCAASGFIFKPYTMGWYRQAPGKERELVATITFSGGSTYYADSVKGRFTISLDNAQNTVYLQMNSLNPEDTAVYYCADPRYYRGYSIFDYLGQGTQVTVSS | low polyreactivity |
| QFQLVESGGGLVQAGGSLRLSCAASGFIFSTYTMGWYRQAPGKERELVAAISSGGGTYYADSVKGRFTISRDNAKNTVYLQMNSLKPEDTAVYYCAALVYSSYPAGWYDYWGQGTQVTVSS | high polyreactivity |
| QFQLVESGGGLVQAGGSLRLSCAASGFIFYKYAMGWYRQAPGKERELVAAISSIGGRTYYADSVKGRFTISRDNAKNTVYLQMNSLKPEDTAVYYCAARYRRTIPWFAPGNDHKYWGQGTQVTVSS | high polyreactivity |
| QFQLVESGGGLVQAGGSLRLSCAASGFILWTYAMGWYRQAPGKERELVAAISTTGGSTYYADSVKGRFTISRDNAKNTVYCQMNSLKPEDTAVYYCAAQVGRGYEVYPVYKYGYWGQGTQVTVSS | high polyreactivity |
| QFQLVESGGGLVQAGGSLRLSCAASGFTFDDYDMGWYRQAPGKERELVAAISWSGGSTYYADSVKGRFTISRDNSKNTVYLQMNSLKPEDTAVYYCAAERSYGGFDYWGQGTQVSVSS | low polyreactivity |
| QFQLVESGGGLVQAGGSLRLSCAASGFTISWNTMGWYRQAPRKERELVATISGSGGRTYYADSVKGRFTISRDNAKNTVYFQMNSMKPEDTAVYYCAARYVLGGQGTSRRVRGGYWGQGTQLTVSS | high polyreactivity |

From the nanobody polyreactivity screen of Harvey et al. (2022)
